Assay results taken from paper doi:10.1101/2022.07.21.500383 (bioRxiv, 2022).

Legend:
Experiment in all cases: ITC
[1] = target: IL-11_(Δ10/PAIDY)/IL-11Rα_(D1-D3) binary complex (human) (UniProt P20809)
[2] = target: IL-11_(Δ10/Mutein)/IL-11Rα_(D1-D3) binary complex (human) (UniProt P20809)
[3] = target: T1, IL-11Δ10/IL-11Rα_(D1-D3) binary complex (human, UniProt P20809 32-199; Q14626 23-317)
T1 sequence 1: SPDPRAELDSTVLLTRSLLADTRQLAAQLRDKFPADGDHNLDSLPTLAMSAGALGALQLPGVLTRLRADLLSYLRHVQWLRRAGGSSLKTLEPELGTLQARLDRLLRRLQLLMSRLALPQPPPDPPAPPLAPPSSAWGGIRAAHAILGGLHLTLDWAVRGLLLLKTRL
T1 sequence 2: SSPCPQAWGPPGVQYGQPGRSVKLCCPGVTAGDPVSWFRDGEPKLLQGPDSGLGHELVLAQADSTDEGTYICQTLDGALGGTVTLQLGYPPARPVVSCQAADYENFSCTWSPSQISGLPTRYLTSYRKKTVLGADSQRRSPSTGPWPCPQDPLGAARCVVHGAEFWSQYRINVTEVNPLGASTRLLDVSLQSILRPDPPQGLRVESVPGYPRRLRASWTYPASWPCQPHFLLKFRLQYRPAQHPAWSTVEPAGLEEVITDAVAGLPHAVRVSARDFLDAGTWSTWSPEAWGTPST

[4] = target: IL-11_(Δ10/W147A)/IL-11Rα_(D1-D3) binary complex (human) (UniProt P20809)

B1: gp130_(D1-D3) (cytokine binding domains of gp130) (receptor, human)
chain: ELLDPCGYISPESPVVQLHSNFTAVCVLKEKCMDYFHVNANYIVWKTNHFTIPKEQYTIINRTASSVTFTDIASLNIQLTCNILTFGQLEQNVYGITIISGLPPEKPKNLSCIVNEGKKMRCEWDGGRETHLETNFTLKSEWATHKFADCKAKRDTPTSCTVDYSTVYFVNIEVWVEAENALGKVTSDHINFDPVYKVKPNPPHNLSVINSEELSSILKLTWTNPSIKSVIILKYNIQYRTKDASTWSQIPPEDTASTRSSFTVQDLKPFTEYVFRIRCMKEDGKGYWSDWSEEASGITYEDR
modifications: N-linked glycans at N21, N61, N135 (visible in the structures)
Kd [1]: 20 nM
Kd [2]: 55 nM
Kd [3]: 3 nM
dH [3]: -8.13 kcal/mol

B2: gp130_(D2-D3) (receptor, human, UniProt P40189 123-325, looked up)
chain: GLPPEKPKNLSCIVNEGKKMRCEWDGGRETHLETNFTLKSEWATHKFADCKAKRDTPTSCTVDYSTVYFVNIEVWVEAENALGKVTSDHINFDPVYKVKPNPPHNLSVINSEELSSILKLTWTNPSIKSVIILKYNIQYRTKDASTWSQIPPEDTASTRSSFTVQDLKPFTEYVFRIRCMKEDGKGYWSDWSEEASGITYEDR
Kd [4]: 130 nM
Kd [1]: 60 nM
Kd [3]: 380 nM
dH [3]: 6.45 kcal/mol

B3: gp130EC (complete extracellular domains of gp130, D1-D6) (receptor, human, UniProt P40189 23-619, looked up)
chain: ELLDPCGYISPESPVVQLHSNFTAVCVLKEKCMDYFHVNANYIVWKTNHFTIPKEQYTIINRTASSVTFTDIASLNIQLTCNILTFGQLEQNVYGITIISGLPPEKPKNLSCIVNEGKKMRCEWDGGRETHLETNFTLKSEWATHKFADCKAKRDTPTSCTVDYSTVYFVNIEVWVEAENALGKVTSDHINFDPVYKVKPNPPHNLSVINSEELSSILKLTWTNPSIKSVIILKYNIQYRTKDASTWSQIPPEDTASTRSSFTVQDLKPFTEYVFRIRCMKEDGKGYWSDWSEEASGITYEDRPSKAPSFWYKIDPSHTQGYRTVQLVWKTLPPFEANGKILDYEVTLTRWKSHLQNYTVNATKLTVNLTNDRYLATLTVRNLVGKSDAAVLTIPACDFQATHPVMDLKAFPKDNMLWVEWTTPRESVKKYILEWCVLSDKAPCITDWQQEDGTVHRTYLRGNLAESKCYLITVTPVYADGPGSPESIKAYLKQAPPSKGPTVRTKKVGKNEAVLEWDQLPVDVQNGFIRNYTIFYRTIIGNETAVNVDSSHTEYTLSSLTSDTLYMVRMAAYTDEGGKDGPEFTFTTPKFAQGEIE
modifications: N-linked glycans at N21, N61, N135 (visible in the structures)
dH [3]: -4.78 kcal/mol
